In paper PMC7039627:

Target: extracellular domain of hCTLA-4 (Homo sapiens) (UniProt P16410)
Test: SPR

Sequence of UniProt P16410 (P16410 36-161): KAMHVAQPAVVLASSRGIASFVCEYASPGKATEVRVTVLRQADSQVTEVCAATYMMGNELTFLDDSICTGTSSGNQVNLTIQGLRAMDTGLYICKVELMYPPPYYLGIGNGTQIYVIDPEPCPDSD

With Ipilimumab (antibody) the Kd was 3.68 nM.
